Bridge positions count the residues as written; N and C are the ends.
T1: COX2(h) (human), P35354
T1 chain: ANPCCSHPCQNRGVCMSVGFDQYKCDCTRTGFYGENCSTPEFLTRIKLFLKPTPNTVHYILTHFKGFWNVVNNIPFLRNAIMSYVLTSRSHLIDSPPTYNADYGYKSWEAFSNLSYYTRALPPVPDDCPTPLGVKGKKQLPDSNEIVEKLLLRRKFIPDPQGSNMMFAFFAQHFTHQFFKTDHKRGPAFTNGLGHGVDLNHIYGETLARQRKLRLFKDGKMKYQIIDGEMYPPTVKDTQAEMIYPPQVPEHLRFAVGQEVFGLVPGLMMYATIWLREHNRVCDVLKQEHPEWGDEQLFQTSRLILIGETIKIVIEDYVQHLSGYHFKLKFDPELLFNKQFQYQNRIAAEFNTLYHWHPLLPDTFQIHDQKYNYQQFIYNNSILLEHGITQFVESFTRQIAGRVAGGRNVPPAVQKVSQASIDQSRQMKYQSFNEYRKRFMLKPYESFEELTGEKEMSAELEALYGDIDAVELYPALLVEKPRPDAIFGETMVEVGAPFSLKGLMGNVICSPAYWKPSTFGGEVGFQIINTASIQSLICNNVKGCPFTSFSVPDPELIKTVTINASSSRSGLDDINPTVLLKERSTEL

T2: M2 (h) (human), P08172
T2 chain: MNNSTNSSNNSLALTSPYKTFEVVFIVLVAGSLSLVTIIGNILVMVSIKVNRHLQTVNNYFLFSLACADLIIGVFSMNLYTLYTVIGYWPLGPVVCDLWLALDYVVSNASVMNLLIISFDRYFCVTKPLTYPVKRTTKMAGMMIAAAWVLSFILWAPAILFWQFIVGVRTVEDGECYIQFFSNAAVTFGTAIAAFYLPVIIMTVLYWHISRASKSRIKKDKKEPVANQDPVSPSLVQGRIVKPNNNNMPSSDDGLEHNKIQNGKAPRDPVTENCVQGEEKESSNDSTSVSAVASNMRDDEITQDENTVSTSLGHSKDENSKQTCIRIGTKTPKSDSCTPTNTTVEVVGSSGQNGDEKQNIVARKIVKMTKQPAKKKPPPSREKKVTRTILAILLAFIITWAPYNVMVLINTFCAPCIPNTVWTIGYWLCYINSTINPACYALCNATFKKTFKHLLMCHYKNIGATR

T3: dopamine transporter (h) (human), Q01959
T3 chain: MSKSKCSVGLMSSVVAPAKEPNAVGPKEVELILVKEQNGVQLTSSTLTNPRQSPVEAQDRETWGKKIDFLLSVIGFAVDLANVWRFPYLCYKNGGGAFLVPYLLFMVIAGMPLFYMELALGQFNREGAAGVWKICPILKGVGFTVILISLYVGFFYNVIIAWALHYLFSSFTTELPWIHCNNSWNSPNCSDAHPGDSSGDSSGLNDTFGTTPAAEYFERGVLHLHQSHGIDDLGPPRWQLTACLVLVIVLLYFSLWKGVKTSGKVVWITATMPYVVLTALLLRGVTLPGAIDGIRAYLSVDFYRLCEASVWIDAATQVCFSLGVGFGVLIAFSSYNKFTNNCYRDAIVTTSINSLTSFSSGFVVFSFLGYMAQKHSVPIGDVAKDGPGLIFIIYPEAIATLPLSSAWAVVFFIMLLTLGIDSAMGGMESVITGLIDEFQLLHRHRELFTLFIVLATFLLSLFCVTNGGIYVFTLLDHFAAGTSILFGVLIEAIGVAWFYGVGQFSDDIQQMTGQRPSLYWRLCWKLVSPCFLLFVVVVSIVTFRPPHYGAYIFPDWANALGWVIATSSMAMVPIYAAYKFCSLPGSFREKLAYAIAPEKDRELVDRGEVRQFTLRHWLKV

T4: D1 (h) (human), P21728
T4 chain: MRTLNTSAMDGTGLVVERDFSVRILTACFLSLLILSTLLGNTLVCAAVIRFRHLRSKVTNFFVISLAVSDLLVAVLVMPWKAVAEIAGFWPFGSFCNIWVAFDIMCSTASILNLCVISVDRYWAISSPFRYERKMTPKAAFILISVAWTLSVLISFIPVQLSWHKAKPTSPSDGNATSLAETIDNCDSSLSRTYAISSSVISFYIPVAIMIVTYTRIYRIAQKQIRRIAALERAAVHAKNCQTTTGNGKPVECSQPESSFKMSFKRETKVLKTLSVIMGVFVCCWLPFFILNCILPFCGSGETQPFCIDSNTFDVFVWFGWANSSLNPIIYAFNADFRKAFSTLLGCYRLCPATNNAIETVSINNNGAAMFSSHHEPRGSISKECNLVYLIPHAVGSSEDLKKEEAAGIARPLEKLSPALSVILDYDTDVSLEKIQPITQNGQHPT


Key:
[1] = biological target: Ubiquitin carboxy-terminal hydrolase L1, P09936; test: cell-based or functional assay
COX2(h) (human), P35354 = biological target: T1, COX2(h) (human), P35354; test: cell-based or functional assay
Cathepsin S, P25774 = test: cell-based or functional assay
H1 (h) (human), P35367 = test: radioligand displacement (antagonist radioligand), 10 µM; conditions: remark: other sources report otherwise
[2] = biological target: 5-HT1B(h) (human), P28222; test: as above; conditions: remark: other sources report otherwise
M2 (h) (human), P08172 = biological target: T2, M2 (h) (human), P08172; test: as above; conditions: remark: other sources report otherwise
H2 (h) (human), P25021 = test: as above; conditions: remark: other sources report otherwise
Na+ channel (site 2) = test: as above
[3] = biological target: norepinephrine transporter (h) (human), P23975; test: as above; conditions: remark: other sources report otherwise
[4] = biological target: T3, dopamine transporter (h) (human), Q01959; test: as above; conditions: remark: other sources report otherwise
D1 (h) (human), P21728 = biological target: T4, D1 (h) (human), P21728; test: as above; conditions: remark: other sources report otherwise
NMDA = test: as above

Ubiquitin carboxy-terminal hydrolase L1, P09936, sequence (P09936 whole entry): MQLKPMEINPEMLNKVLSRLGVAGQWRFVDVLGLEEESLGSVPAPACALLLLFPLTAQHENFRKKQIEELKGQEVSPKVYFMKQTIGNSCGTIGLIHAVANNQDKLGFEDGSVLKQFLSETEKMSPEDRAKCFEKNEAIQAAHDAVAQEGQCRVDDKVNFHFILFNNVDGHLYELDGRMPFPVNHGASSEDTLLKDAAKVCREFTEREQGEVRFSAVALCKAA
Cathepsin S, P25774, sequence (P25774 115-331 limits assumed): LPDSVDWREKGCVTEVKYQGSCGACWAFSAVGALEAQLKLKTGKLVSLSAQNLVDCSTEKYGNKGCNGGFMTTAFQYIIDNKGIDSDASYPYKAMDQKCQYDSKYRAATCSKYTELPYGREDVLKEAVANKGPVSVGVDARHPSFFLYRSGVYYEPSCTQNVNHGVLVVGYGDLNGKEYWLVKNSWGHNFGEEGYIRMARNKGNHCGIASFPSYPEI
H1 (h) (human), P35367, sequence (P35367 whole entry): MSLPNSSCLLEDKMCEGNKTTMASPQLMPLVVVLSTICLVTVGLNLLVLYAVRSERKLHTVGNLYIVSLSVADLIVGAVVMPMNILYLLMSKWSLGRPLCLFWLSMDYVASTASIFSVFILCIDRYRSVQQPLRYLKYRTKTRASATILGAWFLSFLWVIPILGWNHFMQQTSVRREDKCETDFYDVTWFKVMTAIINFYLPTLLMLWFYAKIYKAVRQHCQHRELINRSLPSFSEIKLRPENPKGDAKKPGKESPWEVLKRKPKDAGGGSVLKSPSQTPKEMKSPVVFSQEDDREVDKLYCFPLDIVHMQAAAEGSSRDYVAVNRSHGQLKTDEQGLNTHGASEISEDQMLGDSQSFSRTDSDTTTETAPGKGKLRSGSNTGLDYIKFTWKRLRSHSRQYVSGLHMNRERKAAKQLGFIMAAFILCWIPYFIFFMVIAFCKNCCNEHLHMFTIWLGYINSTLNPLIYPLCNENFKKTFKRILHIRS
5-HT1B(h) (human), P28222, sequence (P28222 whole entry): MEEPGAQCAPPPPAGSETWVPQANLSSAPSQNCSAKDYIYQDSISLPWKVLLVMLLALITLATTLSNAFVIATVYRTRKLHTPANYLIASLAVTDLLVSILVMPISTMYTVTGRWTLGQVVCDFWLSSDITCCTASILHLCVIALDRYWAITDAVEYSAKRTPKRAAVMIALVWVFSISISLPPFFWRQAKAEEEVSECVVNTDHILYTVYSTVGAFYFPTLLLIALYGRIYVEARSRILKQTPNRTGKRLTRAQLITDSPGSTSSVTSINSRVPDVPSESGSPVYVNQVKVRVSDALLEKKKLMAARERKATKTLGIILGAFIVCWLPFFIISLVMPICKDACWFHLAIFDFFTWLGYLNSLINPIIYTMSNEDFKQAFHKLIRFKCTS
H2 (h) (human), P25021, sequence (P25021 whole entry): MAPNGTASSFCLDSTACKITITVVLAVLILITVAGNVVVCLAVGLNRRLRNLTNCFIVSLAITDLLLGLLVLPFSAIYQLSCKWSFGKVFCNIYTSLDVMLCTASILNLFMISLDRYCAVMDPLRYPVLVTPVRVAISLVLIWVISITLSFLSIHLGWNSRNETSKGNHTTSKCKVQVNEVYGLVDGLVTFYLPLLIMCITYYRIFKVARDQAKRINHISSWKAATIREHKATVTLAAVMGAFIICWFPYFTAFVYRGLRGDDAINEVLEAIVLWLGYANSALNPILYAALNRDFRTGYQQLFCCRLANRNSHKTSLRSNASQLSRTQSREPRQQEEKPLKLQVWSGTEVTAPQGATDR
norepinephrine transporter (h) (human), P23975, sequence (P23975 whole entry): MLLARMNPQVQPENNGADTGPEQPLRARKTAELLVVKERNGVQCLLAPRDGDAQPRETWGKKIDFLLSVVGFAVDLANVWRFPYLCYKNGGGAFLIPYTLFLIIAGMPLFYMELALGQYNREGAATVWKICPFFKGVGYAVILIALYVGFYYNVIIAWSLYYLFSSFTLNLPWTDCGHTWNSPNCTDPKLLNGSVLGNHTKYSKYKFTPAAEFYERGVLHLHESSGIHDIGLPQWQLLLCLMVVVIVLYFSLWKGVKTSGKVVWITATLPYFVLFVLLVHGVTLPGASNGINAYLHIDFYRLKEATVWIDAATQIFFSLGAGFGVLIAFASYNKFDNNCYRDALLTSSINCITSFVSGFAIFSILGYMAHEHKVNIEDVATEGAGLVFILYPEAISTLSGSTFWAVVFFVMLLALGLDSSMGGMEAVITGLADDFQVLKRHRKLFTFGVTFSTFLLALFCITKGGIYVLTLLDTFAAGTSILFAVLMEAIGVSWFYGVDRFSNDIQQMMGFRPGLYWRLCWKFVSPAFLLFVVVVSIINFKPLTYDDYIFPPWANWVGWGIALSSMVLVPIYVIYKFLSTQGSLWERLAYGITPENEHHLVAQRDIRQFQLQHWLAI

Row | Binder | Percentage inhibition (%) at 1 µM [1] [%] | Percentage inhibition (%) at 10 µM [1] [%] | % inhibition of control enzyme activity, compound at 10 µM (COX2(h) (human), P35354) [%] | Percentage inhibition (%) at 1 µM (Cathepsin S, P25774) [%] | Percentage inhibition (%) at 10 µM (Cathepsin S, P25774) [%] | % Inhibition of Specific Binding (H1 (h) (human), P35367) [%] | % Inhibition of Specific Binding [2] [%] | % Inhibition of Specific Binding (M2 (h) (human), P08172) [%] | % Inhibition of Specific Binding (H2 (h) (human), P25021) [%] | % Inhibition of Specific Binding (Na+ channel (site 2)) [%] | % Inhibition of Specific Binding [3] [%] | % Inhibition of Specific Binding [4] [%] | % Inhibition of Specific Binding (D1 (h) (human), P21728) [%] | % Inhibition of Specific Binding (NMDA) [%]
1 | Hex-CPPTQFCD-NH2 (bridge 1-7; not fully specified (bridges); printed as Hex-[Cys(tMeBn(DOTA-PP))-Pro-Pro-Thr-Gln-Phe-Cys]-Asp-NH2) [Hex-[Cys(tMeBn(DOTA-PP))-Pro-Pro-Thr-Gln-Phe-Cys]-Asp-NH2] | -2 | 4 | -14 | 3 | 18 | 11 | -11 | -4 | -5 | -7 | -8 | 12 | 0 | 9
2 | Hex-CPPTQFC-OH (bridge 1-7; not fully specified (bridges); printed as Hex-[Cys(tMeBn(DOTA-AET))-Pro-Pro-Thr-Gln-Phe-Cys]-OH) [Hex-[Cys(tMeBn(DOTA-AET))-Pro-Pro-Thr-Gln-Phe-Cys]-OH] | -4 | 4 | -22 | -10 | -23 | 4 | 8 | 7 | -16 | 14 | -5 | 7 | 7 | 1
